Measurements from publication PMC9257043.

Target: recombinant SmFGFRA extracellular ligand binding domain (rSmFGFRA-L) (Schistosoma mansoni)
Assay: BLI; Octet RED 96; biotinylated rSmFGFRA-L immobilised on Streptavidin Biosensors, human aFGF/bFGF in dilution series as analyte; kinetic buffer (PBS with 15 mM NaCl, 0.1 mg/ml BSA, 0.002% Tween-20); association 1000 s, dissociation 1000 s; 30°C, 1000 rpm; double reference subtraction

Substance | Kd
human acidic FGF (aFGF) (from UniProt P05230 16-155) (ligand) | 5.81 nM
human basic FGF (bFGF) (from UniProt P09038 143-288) (ligand) | 0.36 nM
